Laboratory results as given in patent US20210380994A1, “LACTOCOCCUS LACTIS EXPRESSION SYSTEM FOR DELIVERING PROTEINS EFFICACIOUS FOR THE TREATMENT OF EPITHELIAL BARRIER FUNCTION DISORDERS” (Second Genome, Inc., priority 2018, published 2021).

Tested on: C57BL/6 mice treated with DSS
Assay: concurrent (prophylactic) DSS model of inflammatory bowel disease (Examples 4, 13A)
Assay type: in vivo
Conditions: for 4KDa-FITC signal in serum: Example 13, first model, SG-11 (SEQ ID NO:9) 50 nmoles/kg i.p. b.i.d. (FIG. 18A, p=0.04), SG-11V5 (printed FIG. 18B, p=0.21)
Method: On day six, mice were fasted for four hours and then orally gavaged with 600 mg/kg 4KDa dextran labeled with fluorescein isothiocyanate (FITC) [4KDa-FITC]. One hour after the 4KDa-FITC gavage, mice were euthanized, blood was collected, and FITC signal was measured in serum. […] The magnitude of 4KDa-FITC dextran translocation observed for SG-11 was similar to the positive control of Gly2-GLP2. Results are shown in FIG. 3, and are presented as mean±SEM. The graph in FIG. 3 represents data pooled from 3 independent experiments, each using 10 mice (n=30).
SG-11 was also assessed for its effects on the levels of lipopolysaccharide (LPS) binding protein (LBP) in the blood of the DSS animal with and without SG-11 administration. LBP, which has been linked to clinical disease activity in subjects with inflammatory bowel disease, was also measured by […] in the serum of mice tested in the DSS model described in this Example. […] Results are shown in FIG. 4, and are presented as mean±SEM. The graph in FIG. 4 represents data pooled from 3 independent experiments (n=30; each experiment using 10 mice).
Body weight was measured daily from mice included in the DSS model described in this Example. Percent change from starting weight on day 0 was determined for each mouse. […] Weight loss in mice treated with SG-11 at day 6 was similar to weight loss observed with Gly2-GLP2. The graph in FIG. 5 represents data pooled from two independent experiments (n=20; each experiment using 10 mice).
Gross pathology observations were made in mice included in the concurrent DSS model performed in this Example. […] No differences in clinical scores were observed between mice given DSS and treated with either Gly2-GLP2 or SG-11. The scoring system used was: (0)=no gross pathology, (1)=streaks of blood visible in feces, (2)=completely bloody fecal pellets, (3) bloody fecal material visible in cecum, (4) bloody fecal material in cecum and loose stool, (5)=rectal bleeding. The graph in FIG. 6 represents data pooled from 3 independent experiments (n=30; each experiment using 10 mice).
In addition, histopathology analysis was performed on proximal and distal colon tissues from the DSS model animals. […] LMA Loss of mucosal architecture, Edema=Edema, INF=Inflammation. TMI=Transmural inflammation, MH=Mucosal hyperplasia, DYS=Dysplasia. Graphs represent data pooled from two independent experiments, and are plotted as mean±SEM. Statistical analysis was performed by a one-way ANOVA compared to DSS+vehicle followed by a Fisher's LSD test for multiple comparisons.
Colon length was measured in mice included in the DSS model described above. […] The graphs in FIGS. 8A and 8B represent data pooled from 3 independent experiments (n=30). Data are graphed as mean SEM and are pooled from three independent experiments (n=30; each experiment using 10 mice). Statistical analysis was performed by a one-way ANOVA followed by a Fisher's LSD multiple comparisons test.
Briefly, in the first DSS mouse model (Example 13A), mice were treated on day zero with test compound intraperitoneally (i.p.) and 6 hours later DSS treatment was initiated. Doses administered included 50 nmoles/kg for SG-11 (SEQ ID NO:9) ([…]), and Gly2-GLP2 (0.2 mg/kg), and a dose response for SG-11V5 (SEQ ID NO:19) including 16 nmoles/kg ([…]), 50 nmoles/kg ([…]) and 158 nmoles/kg (4.0 mg/kg). […] Therapeutic protein treatments were administered twice a day for the duration of the DSS exposure.
At the end of each DSS model study, mice were fasted for 4 hours and then orally gavaged with 600 mg/kg 4KDa dextran labeled with FITC [4KDa-FITC]. One hour after the 4KDa-FITC gavage, mice were euthanized, blood was collected, and FITC signal was measured in serum. […] Data in both graphs are plotted as mean±SEM and each figure represent data from an individual experiment (n=10 per group).
Upon completion of the OSS models above. […]

[1] = Example 4, 50 nmoles/kg i.p. b.i.d.
[2] = Example 4, 50 nmoles/kg i.p. b.i.d., vs DSS + vehicle

B1: SG-11: Roseburia hominis protein comprising SEQ ID NO:3; tested as SEQ ID NO:5, SEQ ID NO:7 or FLAG-tagged SEQ ID NO:9 (protein, listed as Rosburia hominis)
chain: LEGEESVVYVGKKGVIASLDVETLDQSYYDETELKSYVDAEVEDYTAEHGKNAVKVESLKVEDGVAKLKMKYKTPEDYTAFNGIELYQGKVVASLAAGYVYDGEFARVEEGKVVGAATKQDIYSEDDLKVAIIRANTDVKVDGEICYVSCQNVKLTGKDSVSIRDGYYLETGSVTASVDVTGQESVGTEQLSGTEQMEMTGEPVNADDTEQTEAAAGDGSFETDVYTFIVYK
- colon length [1]: prevented colon shortening elicited by DSS
- colon weight to length ratio [1]: significant improvement in colon weight to length ratios
- histopathology: edema score of colon [1]: reduced edema to a similar level as Gly2-GLPs, though the difference did not reach statistical significance
- 4KDa-FITC dextran translocation across the epithelial barrier (serum) (Example 4, 50 nmoles/kg i.p. b.i.d., 2.5% DSS 6 days, vs DSS + vehicle): significant reduction in 4KDa-FITC dextran
- body weight [2]: significantly improved body weight
- gross pathology (clinical score 0-5) [2]: significantly improved gross pathology
- serum LPS binding protein (LBP) concentration [2]: significant reduction in LBP
- 4KDa-FITC signal in serum: significantly reduced the 4KDa-FITC signal
- colon length (Example 13A (FIG. 22A)): significant increase in the colon length

B2: SG-11V5: variant of SEQ ID NO:7 with N53S, N83S, C147V, C151S (protein)
chain: MLEGEESVVYVGKKGVIASLDVETLDQSYYDETELKSYVDAEVEDYTAEHGKSAVKVESLKVEDGVAKLKMKYKTPEDYTAFSGIELYQGKVVASLAAGYVYDGEFARVEEGKVVGAATKQDIYSEDDLKVAIIRANTDVKVDGEIVYVSSQNVKLTGKDSVSIRDGYYLETGSVTASVDVTGQESVGTEQLSGTEQMEMTGEPVNADDTEQTEAAAGDGSFETDVYTFIVYK
modifications: Artificial variant of SG-11 (N53S, N83S, C147V, C151S)
- 4KDa-FITC signal in serum: reduced the 4KDa-FITC signal, although the difference did not reach statistical significance
- gross pathology (clinical score 0-5) (Example 13, 160 nmoles/kg dose, p<0.002): significant improvement
- colon length (Example 13A (FIG. 22A)): significant increase in the colon length
- body weight (Example 13A, 158 nmoles/kg, day 6): significant improvement in body weight
- serum LBP (Example 13A, 158 nmoles/kg, p=0.003): significant reduction in LBP production
